Assay results published in patent US7608695B2, “Substance with antithrombotic activity and method for detecting glycokallidin” (Ajinomoto Co., Inc., priority 1998, dated 2009).

Assays:
[1] = biological target: T1, binding of von Willebrand factor and chimeric protein (glycoprotein Ib) (Homo sapiens, UniProt P04275+P07359); assay: Detection of glycocalicin in plasma by ELISA using anti-mouse IgG-Fc antibodies; set-up: made in house; host or cells: CHOdhfr- cells transfected with pSDGPIbIgG1Fc; unpurified serum-free culture supernatant; details: diluted human plasma, based on reported blood concentration about 2 μg/ml
Protocol: Immobilization of a mixed solution of von Willebrand factor and botrocetin on a 96-well multititer plate was attained as follows. First, a physiological saline solution of von Willebrand factor (250 μg/ml) and a physiological saline solution of botrocetin (500 μg/ml), which were prepared in a conventional manner, were appropriately diluted, and mixed at the concentration ratios shown in FIG. 2. Then, 50 μl of each mixture was added to each well of a 96-well multititer plate (Maxisorp, produced by Nunc). […]
Each well was washed 5 times with TBS (150 μl) containing 0.05% Tween-20, and added with 100 μl of 100 mM NaHCO3 solution containing 10 mM MgCl2, in which p-nitrophenylphosphate was dissolved at 1 mg/ml, to carry out the color development reaction for about 1 hour. After the color development, absorbance at 405 nm was measured.
The detection was carried out in the same manner as that of Example 4 <1> except that von Willebrand factor was immobilized by using a mixed solution (TBS) containing 2.5 μg/ml of von Willebrand factor and 2.5 μg/ml of botrocetin, and a binding inhibition substance of which inhibitory activity was desired to be measured was added to the reaction of the immobilized von Willebrand factor and the culture supernatant of the chimeric protein producing cells. […]

[2] = biological target: T1, binding of von Willebrand factor and chimeric protein (glycoprotein Ib); assay: Detection of glycocalicin in plasma using chimeric protein labeled with europium (Eu); set-up: made in house; host or cells: CHOK1 cells transfected with pMikGPIbFc; purified on a Protein A column and labelled with europium; details: diluted human plasma, based on reported blood concentration about 2 μg/ml
Protocol: The detection was carried out in the same manner as that of Example 4 <2> except that svon Willebrand factor was immobilized by using a mixed solution (TBS) containing 2.5 μg/ml of von Willebrand factor and 2.5 μg/ml of botrocetin, and a binding inhibition substance of which inhibitory activity was desired to be measured was added to the reaction of the immobilized von Willebrand factor and the chimeric protein labeled with europium (Eu).
Each human plasma independently prepared in the same manner as the above <1> were successively diluted 2-fold with TBS (8 times of dilution in total), and 25 μl each of the diluted plasma was added to each well of a von Willebrand factor immobilized plate prepared in the same manner as in Example 5 <1> (microtitration plate DELFIA, 1244-550, produced by Pharmacia Biotech, was used as the base plate). Further, 25 μl a solution of the chimeric protein labeled with europium (Eu) in assay buffer prepared in the same manner as in Example 4 <1> (100 ng/ml, Assay Buffer; 1244-106, produced by Pharmacia Biotech) was added to each well of the plate for reaction. The subsequent washing and measurement were performed in the same manner as in Example 5 <2>, and the average values of the results are shown in FIG. 7.

[3] = system: anti-glycocalicin antibodies; details: competitive ELISA, literature; cited from earlier work

For “glycocalicin: enzymatically cleaved extracellular portion of platelet membrane glycoprotein Ibα chain, about 135 kDa”, the “Glycocalicin concentration showing 50% binding inhibition” value [1] is listed as “about 400 ng/ml”, the “Glycocalicin concentration showing 50% binding inhibition” value [2] is listed as “about 60 ng/ml” and the “IC50 value of the glycocalicin concentration showing competitive inhibition” value [3] is listed as “about 4 μg/ml”.
